Experimental data from doi:10.1101/2024.10.14.618187, “Molecular basis of interchain disulfide-bond formation in BMP-9 and BMP-10” (bioRxiv, 2024).
Changes are numbered by the printed parent chain. Names may count otherwise. Values belong to the molecule of their own block, whether it stands above or below them.

What was measured:
[1] = target: BMP-9 dimer (disulfide-linked BMP-9 growth factor homodimer) (human) (UniProt Q9UK05)
[2] = target: BMP-9 monomer (cysteinylated BMP-9 growth factor) (human) (UniProt Q9UK05)
[3] = target: the molecule itself; test: non-reducing SDS-PAGE after IMAC, with densitometry; His-tagged pro-proteins purified from expi293 conditioned medium by IMAC, run non-reduced and reduced; shows the disulfide-linked dimer beside the monomer; bands quantified with ImageJ
[4] = target: the molecule itself; test: crystal structure; purified BMP-9 dimers at acidic pH: wild type 0.3 M sodium citrate pH 3.5; mutants 0.1 M acetic acid pH 4
[5] = target: BMP-10 monomer (human) (UniProt O95393)
[6] = target: BMP-10 dimer (human) (UniProt O95393)
[7] = target: T1, Pro-(X)-BMP-10 S385G, R353K, O95393; test: SDS-PAGE densitometry after IMAC purification; details: chain shown with the change
T1 chain: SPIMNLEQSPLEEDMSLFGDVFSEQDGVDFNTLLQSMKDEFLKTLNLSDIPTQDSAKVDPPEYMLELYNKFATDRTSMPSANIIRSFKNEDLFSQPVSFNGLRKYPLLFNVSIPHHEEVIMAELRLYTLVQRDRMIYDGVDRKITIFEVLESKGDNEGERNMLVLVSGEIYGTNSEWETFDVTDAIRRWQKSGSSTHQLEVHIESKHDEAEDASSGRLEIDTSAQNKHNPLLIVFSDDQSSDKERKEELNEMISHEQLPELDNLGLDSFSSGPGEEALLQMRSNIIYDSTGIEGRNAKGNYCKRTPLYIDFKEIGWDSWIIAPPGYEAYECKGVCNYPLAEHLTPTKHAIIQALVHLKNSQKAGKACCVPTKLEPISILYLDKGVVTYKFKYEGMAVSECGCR

[8] = target: T2, Pro-(X)-BMP-10 R353K, O95393; test: SDS-PAGE densitometry after IMAC purification; details: chain shown with the change
T2 chain: T1 chain with G364S

[9] = target: T3, Pro-(X)-BMP-10 S385G, O95393; test: SDS-PAGE densitometry after IMAC purification; details: chain shown with the change
T3 chain: T1 chain with K332R

[10] = target: the molecule itself; test: crystal structure; BMP-10 Crystal Chimera; 25% 1,2-propanediol, 100 mM phosphate pH 6.2, 10% glycerol

EC50 of pSMAD1/5/9 (western blot) in serum-starved HUVECs, 45 minutes, dimers 0.001–1.62 ng/mL [1]: 3.3 pM
Molecule: BMP-9 dimer (disulfide-linked BMP-9 growth factor homodimer) (from UniProt Q9UK05 320-429) (ligand)

EC50 of pSMAD1/5/9 (western blot) in serum-starved HUVECs, 45 minutes, monomers 0.01–54 ng/mL [2]: 124 pM
Molecule: BMP-9 monomer (cysteinylated BMP-9 growth factor) (from UniProt Q9UK05 320-429) (ligand)

B1: Pro-(fr)-BMP-9 (natural protein, human, UniProt Q9UK05 23-429, looked up)
chain: KPLQSWGRGSAGGNAHSPLGVPGGGLPEHTFNLKMFLENVKVDFLRSLNLSGVPSQDKTRVEPPQYMIDLYNRYTSDKSTTPASNIVRSFSMEDAISITATEDFPFQKHILLFNISIPRHEQITRAELRLYVSCQNHVDPSHDLKGSVVIYDVLDGTDAWDSATETKTFLVSQDIQDEGWETLEVSSAVKRWVRSDSTKSKNKLEVTVESHRKGCDTLDISVPPGSRNLPFFVVFSNDHSSGTKETRLELREMISHEQESVLKKLSKDGSTEAGESSHEEDTDGHVAAGSTLARRKRSSGAGSHCQKTSLRVNFEDIGWDSWIIAPKEYEAYECKGGCFFPLADDVTPTKHAIVQTLVHLKFPTKVGKACCVPTKLSPISVLYKDDMGVPTLKYHYEGMSVAECGCR
notes: human proBMP9 residues 23-429 with the natural furin site; secreted partially processed; Partly cut by furin into prodomain and growth factor (12 and 24 kDa forms on the gel); also called Pro-BMP-9 with unmodified furin processing site; wild-type BMP-9; source: expi293 (suspension HEK293), secreted; purified by IMAC; not shown: 8xHis, N-terminal, kept
binding result [3]: binds

B2: Pro-(X)-BMP-9 K357R (natural protein, human, UniProt Q9UK05 23-429, looked up)
chain: B1 chain with R294I, R295E, K296G, K335R
notes: also called K357R BMP-9; source: expi293 (suspension HEK293), secreted; purified by IMAC; not shown: 8xHis, N-terminal, kept
binding result [3]: binds

B3: Pro-(X)-BMP-9 (natural protein, human, UniProt Q9UK05 23-429, looked up)
chain: B1 chain with R294I, R295E, K296G
notes: human proBMP9 residues 23-429, furin site RRKR replaced by factor X site IEGR; Secreted unprocessed as a monomer-dimer mixture; also called Pro-BMP-9 with factor-X processing site; Pro-BMP-9 wild-type; source: expi293 (suspension HEK293), secreted; purified from conditioned medium by IMAC; not shown: 8xHis, N-terminal, kept
binding result [3]: binds

B4: Pro-(X)-BMP-9 G389S, K357R (natural protein, human, UniProt Q9UK05 23-429, looked up)
chain: B1 chain with R294I, R295E, K296G, K335R, G367S
notes: also called G389S, K357R BMP-9; BMP-9 double mutant; source: expi293 (suspension HEK293), secreted; purified by IMAC; not shown: 8xHis, N-terminal, kept
binding result [3]: binds

B5: Pro-(X)-BMP-9 G389S (natural protein, human, UniProt Q9UK05 23-429, looked up)
chain: B1 chain with R294I, R295E, K296G, G367S
notes: also called G389S BMP-9; source: expi293 (suspension HEK293), secreted; purified by IMAC; not shown: 8xHis, N-terminal, kept
binding result [3]: binds

B6: Pro-(fr)-Act-A (natural protein, human, UniProt P08476 27-426, looked up)
chain: EGHSAAPDCPSCALAALPKDVPNSQPEMVEAVKKHILNMLHLKKRPDVTQPVPKAALLNAIRKLHVGKVGENGYVEIEDDIGRRAEMNELMEQTSEIITFAESGTARKTLHFEISKEGSDLSVVERAEVWLFLKVPKANRTRTKVTIRLFQQQKHPQGSLDTGEEAEEVGLKGERSELLLSEKVVDARKSTWHVFPVSSSIQRLLDQGKSSLDVRIACEQCQESGASLVLLGKKKKKEEEGEGKKKGGGEGGAGADEEKEQSHRPFLMLQARQSEDHPHRRRRRGLECDGKVNICCKKQFFVSFKDIGWNDWIIAPSGYHANYCEGECPSHIAGTSGSSLSFHSTVINHYRMRGHSPFANLKSCCVPTKLRPMSMLYYDDGQNIIKKDIQNMIVEECGCS
notes: human proINHBA residues 27-426; The results call it N-terminally histidine-tagged and purified by that tag; the methods say 'with no tag or processing site'; Furin processing incomplete; also called Pro-Activin-A; Pro-Act-A; source: expi293 (suspension HEK293), secreted; purified from conditioned medium by the histidine tag; not shown: His tag, N-terminal, kept
binding result [3]: binds

B7: BMP-9 G389S dimer (ligand, human, UniProt Q9UK05 320-429, looked up)
chain: SSGAGSHCQKTSLRVNFEDIGWDSWIIAPKEYEAYECKGGCFFPLADDVTPTKHAIVQTLVHLKFPTKVSKACCVPTKLSPISVLYKDDMGVPTLKYHYEGMSVAECGCR
modifications: interchain disulfide at Cys-392
notes: human BMP-9 growth factor domain from a mutant of Pro-(X)-BMP-9 (proBMP9 residues 23-429, A321S, RRKR replaced by IEGR); numbers count on the precursor; Rows of m3 with m3 mean the two chains of the dimer; source: expi293 (suspension HEK293), mutant of Pro-(X)-BMP-9; purified dimer
binding result [4]: binds

B8: BMP-9 G389S, K357R dimer (ligand, human, UniProt Q9UK05 320-429, looked up)
chain: B7 chain with K38R
modifications: interchain disulfide at Cys-392
notes: human BMP-9 growth factor domain from a mutant of Pro-(X)-BMP-9 (proBMP9 residues 23-429, A321S, RRKR replaced by IEGR); numbers count on the precursor; Rows of m4 with m4 mean the two chains of the dimer; also called BMP-9 double-mutant; source: expi293 (suspension HEK293), mutant of Pro-(X)-BMP-9; purified dimer
binding result [4]: binds

EC50 of pSMAD1/5/9 (western blot) in serum-starved HUVECs, 45 minutes, monomers 0.01–54 ng/mL [5]: 164 pM
B9: BMP-10 monomer (ligand)
chain: NAKGNYCKRTPLYIDFKEIGWDSWIIAPPGYEAYECRGVCNYPLAEHLTPTKHAIIQALVHLKNSQKASKACCVPTKLEPISILYLDKGVVTYKFKYEGMAVSECGCR
modifications: cysteinylated (+119 Da); the paper takes the site to be the interchain cysteine

EC50 of pSMAD1/5/9 (western blot) in serum-starved HUVECs, 45 minutes, dimers 0.001–1.62 ng/mL [6]: 5.9 pM
B10: BMP-10 dimer (ligand)
chain: B9 chain
modifications: interchain disulfide

other: dimer over monomer ratio [7]: 0.41
B11: Pro-(X)-BMP-10, O95393 S385G; R353K (protein)
chain: T1 chain

B12: Pro-(fr)-BMP-10 (natural protein, human, UniProt O95393 22-424, looked up)
chain: T1 chain with G291A, I292R, E293I, G294R, K332R, G364S
notes: human proBMP10 residues 22-424 with the natural furin site; secreted partially processed; Partly cut by furin into prodomain and growth factor; also called Pro-BMP-10 with unmodified furin processing site; wild-type BMP-10; source: expi293 (suspension HEK293), secreted; purified by IMAC; not shown: 8xHis, N-terminal, kept
binding result [3]: binds

other: dimer over monomer ratio [8]: 0.9
B13: Pro-(X)-BMP-10, O95393 R353K (protein)
chain: T1 chain with G364S

other: dimer over monomer ratio [9]: 0.42
B14: Pro-(X)-BMP-10, O95393 S385G (protein)
chain: T1 chain with K332R

B15: Pro-(fr)-TGF-β2 (natural protein, human, UniProt P61812-1 19-414, looked up)
chain: LSLSTSSTLDMDQFMRKRIEAIRGQILSKLKLTSPPEDYPEPEEVPPEVISIYNSTRDLLQEKASRRAAACERERSDEEYYAKEVYKIDMPPFFPSENAIPPTFYRPYFRIVRFDVSAMEKNASNLVKAEFRVFRLQNPKARVAEQRIELYQILKSKDLTSPTQRYIDSKVVKTRAEGEWLSFDVTDAVHEWLHHKDRNLGFKISLHCPCCTFVPSNNYIIPNKSEELEARFAGIDGTSTYTSGDQKTIKSTRKKNSGKTPHLLLMLLPSYRLESQQTNRRKKRALDAAYCFRNVQDNCCLRPLYIDFKRDLGWKWIHEPKGYNANFCAGACPYLWSSDTQHSRVLSLYNTINPEASASPCCVSQDLEPLTILYYIGKTPKIEQLSNMIVKSCKCS
notes: human proTGFβ2 residues 19-414; Behind the mouse Ig signal peptide and the His tag, no processing site after the tag; Furin processing incomplete; also called Pro-TGF-β2; source: expi293 (suspension HEK293), secreted; purified from conditioned medium by the histidine tag; not shown: 8xHis, N-terminal, kept
binding result [3]: binds

B16: BMP-10 Crystal Chimera (growth factor from Pro9-(X)-BMP-10 Crystal Chimera) (ligand, human)
chain: DDGNYCKRTPLYIDFKEIGWDSWIIAPPGYEAYECRGVCFFPLAEHLTPTKHAIIQTLVHLKNSQKASKACCVPTKLEPISILYLDKGVVTLKYKYEGMAVSECGCR
notes: human proBMP10 residues 320-424 with five residues replaced by BMP-9 crystal contacts; numbers count on the precursor; Expressed behind the BMP-9 prodomain (proBMP9 residues 23-315); also called chimeric BMP-10; source: expi293 (suspension HEK293), expressed as Pro9-(X)-BMP-10 Crystal Chimera; purified
binding result [10]: binds
